Measured values reported in IntAct's records for PubMed 15207857.

B1: Glutamate receptor ionotropic, delta-2 (Mus musculus), Q61625 (parent)
chain: MEVFPLLLFLSFCWSRTWDLATADSIIHIGAIFDESAKKDDEVFRTAVGDLNQNEEILQTEKITFSVTFVDGNNPFQAVQEACELMNQGILALVSSIGCTSAGSLQSLADAMHIPHLFIQRSTAGTPRSGCGLTRSNRNDDYTLSVRPPVYLNEVILRVVTEYAWQKFIIFYDSEYDIRGIQEFLDKVSQQGMDVALQKVENNINKMITTLFDTMRIEELNRYRDTLRRAILVMNPATAKSFISEVVETNLVAFDCHWIIINEEINDVDVQELVRRSIGRLTIIRQTFPVPQNISQRCFRGNHRISSSLCDPKDPFAQNMEISNLYIYDTVLLLANAFHKKLEDRKWHSMASLSCIRKNSKPWQGGRSMLETIKKGGVNGLTGDLEFGENGGNPNVHFEILGTNYGEELGRGVRKLGCWNPVTGLNGSLTDKKLENNMRGVVLRVVTVLEEPFVMVSENVLGKPKKYQGFSIDVLDALSNYLGFNYEIYVAPDHKYGSPQEDGTWNGLVGELVFKRADIGISALTITPDRENVVDFTTRYMDYSVGVLLRRAEKTVDMFACLAPFDLSLWACIAGTVLLVGLLVYLLNWLNPPRLQMGSMTSTTLYNSMWFVYGSFVQQGGEVPYTTLATRMMMGAWWLFALIVISSYTANLAAFLTITRIESSIQSLQDLSKQTDIPYGTVLDSAVYQHVRMKGLNPFERDSMYSQMWRMINRSNGSENNVLESQAGIQKVKYGNYAFVWDAAVLEYVAINDPDCSFYTVGNTVADRGYGIALQHGSPYRDVFSQRILELQQSGDMDILKHKWWPKNGQCDLYSSVDAKQKGGALDIKSLAGVFCILAAGIVLSCLIAVLETWWSRRKGSRVPSKEDDKEIDLEHLHRRVNSLCTDDDSPHKQFSTSSIDLTPLDIDTLPTRQALEQISDFRNTHITTTTFIPEQIQTLSRTLSAKAASGFAFGSVPEHRTGPFRHRAPNGGFFRSPIKTMSSIPYQPTPTLGLNLGNDPDRGTSI
partner: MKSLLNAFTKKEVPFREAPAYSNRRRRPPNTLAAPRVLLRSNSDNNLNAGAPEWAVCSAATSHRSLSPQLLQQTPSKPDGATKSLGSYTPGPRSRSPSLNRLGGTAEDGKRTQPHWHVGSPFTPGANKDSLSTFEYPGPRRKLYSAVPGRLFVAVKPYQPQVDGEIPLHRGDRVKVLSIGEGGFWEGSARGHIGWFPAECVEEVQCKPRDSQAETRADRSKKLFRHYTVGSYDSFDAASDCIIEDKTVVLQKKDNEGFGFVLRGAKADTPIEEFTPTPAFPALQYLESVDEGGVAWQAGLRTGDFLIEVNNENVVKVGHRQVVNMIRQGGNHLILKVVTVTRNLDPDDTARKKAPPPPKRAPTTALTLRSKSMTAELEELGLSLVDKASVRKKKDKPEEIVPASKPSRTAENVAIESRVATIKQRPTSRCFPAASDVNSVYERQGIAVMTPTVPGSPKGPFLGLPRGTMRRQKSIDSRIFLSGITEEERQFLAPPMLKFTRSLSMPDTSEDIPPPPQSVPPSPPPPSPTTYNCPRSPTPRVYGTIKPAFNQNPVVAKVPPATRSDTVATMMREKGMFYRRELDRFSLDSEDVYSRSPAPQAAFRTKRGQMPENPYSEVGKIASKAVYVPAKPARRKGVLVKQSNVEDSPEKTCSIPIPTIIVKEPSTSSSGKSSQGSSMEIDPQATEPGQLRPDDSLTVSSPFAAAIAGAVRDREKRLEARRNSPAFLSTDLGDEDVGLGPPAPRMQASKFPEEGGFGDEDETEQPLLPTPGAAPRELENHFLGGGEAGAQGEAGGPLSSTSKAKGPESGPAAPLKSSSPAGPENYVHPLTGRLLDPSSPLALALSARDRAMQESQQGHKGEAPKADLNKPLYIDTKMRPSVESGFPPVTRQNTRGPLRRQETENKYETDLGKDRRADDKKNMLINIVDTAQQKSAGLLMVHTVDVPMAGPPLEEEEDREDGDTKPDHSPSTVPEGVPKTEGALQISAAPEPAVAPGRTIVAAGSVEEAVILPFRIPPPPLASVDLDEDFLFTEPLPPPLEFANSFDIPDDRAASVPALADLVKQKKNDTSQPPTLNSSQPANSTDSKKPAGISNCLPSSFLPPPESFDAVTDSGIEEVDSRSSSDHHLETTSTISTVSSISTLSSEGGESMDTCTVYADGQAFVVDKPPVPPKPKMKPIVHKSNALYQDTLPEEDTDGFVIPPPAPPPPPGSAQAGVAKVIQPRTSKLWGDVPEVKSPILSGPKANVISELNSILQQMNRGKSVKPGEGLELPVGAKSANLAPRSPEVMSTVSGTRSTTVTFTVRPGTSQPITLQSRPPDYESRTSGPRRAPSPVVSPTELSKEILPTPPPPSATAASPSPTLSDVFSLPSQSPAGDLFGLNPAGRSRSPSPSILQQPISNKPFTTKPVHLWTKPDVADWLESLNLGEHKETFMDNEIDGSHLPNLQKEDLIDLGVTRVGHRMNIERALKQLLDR
B2: Glutamate receptor ionotropic, delta-2 (Mus musculus), Q61625 (parent)
chain: B1 chain

Variants of: B1
Settings: with shan2_mouse Shank2, Q80Z38

Row | Variant | effect of a mutation on the interaction
1 | T930A;F932A | decreasing interaction
2 | S920A | disrupting interaction
3 | T930A | decreasing interaction

Variants of: B1
Settings: with shan2_mouse Shank2, Q80Z38
Remark: another data set of the same source

Row | Variant | effect of a mutation on the interaction
4 | S920A;T930A;F932A | disrupting interaction

Variants of: B2
Settings: with shan1_rat Shank1, Q9WV48
Sequence of shan1_rat Shank1, Q9WV48 (Q9WV48 whole entry): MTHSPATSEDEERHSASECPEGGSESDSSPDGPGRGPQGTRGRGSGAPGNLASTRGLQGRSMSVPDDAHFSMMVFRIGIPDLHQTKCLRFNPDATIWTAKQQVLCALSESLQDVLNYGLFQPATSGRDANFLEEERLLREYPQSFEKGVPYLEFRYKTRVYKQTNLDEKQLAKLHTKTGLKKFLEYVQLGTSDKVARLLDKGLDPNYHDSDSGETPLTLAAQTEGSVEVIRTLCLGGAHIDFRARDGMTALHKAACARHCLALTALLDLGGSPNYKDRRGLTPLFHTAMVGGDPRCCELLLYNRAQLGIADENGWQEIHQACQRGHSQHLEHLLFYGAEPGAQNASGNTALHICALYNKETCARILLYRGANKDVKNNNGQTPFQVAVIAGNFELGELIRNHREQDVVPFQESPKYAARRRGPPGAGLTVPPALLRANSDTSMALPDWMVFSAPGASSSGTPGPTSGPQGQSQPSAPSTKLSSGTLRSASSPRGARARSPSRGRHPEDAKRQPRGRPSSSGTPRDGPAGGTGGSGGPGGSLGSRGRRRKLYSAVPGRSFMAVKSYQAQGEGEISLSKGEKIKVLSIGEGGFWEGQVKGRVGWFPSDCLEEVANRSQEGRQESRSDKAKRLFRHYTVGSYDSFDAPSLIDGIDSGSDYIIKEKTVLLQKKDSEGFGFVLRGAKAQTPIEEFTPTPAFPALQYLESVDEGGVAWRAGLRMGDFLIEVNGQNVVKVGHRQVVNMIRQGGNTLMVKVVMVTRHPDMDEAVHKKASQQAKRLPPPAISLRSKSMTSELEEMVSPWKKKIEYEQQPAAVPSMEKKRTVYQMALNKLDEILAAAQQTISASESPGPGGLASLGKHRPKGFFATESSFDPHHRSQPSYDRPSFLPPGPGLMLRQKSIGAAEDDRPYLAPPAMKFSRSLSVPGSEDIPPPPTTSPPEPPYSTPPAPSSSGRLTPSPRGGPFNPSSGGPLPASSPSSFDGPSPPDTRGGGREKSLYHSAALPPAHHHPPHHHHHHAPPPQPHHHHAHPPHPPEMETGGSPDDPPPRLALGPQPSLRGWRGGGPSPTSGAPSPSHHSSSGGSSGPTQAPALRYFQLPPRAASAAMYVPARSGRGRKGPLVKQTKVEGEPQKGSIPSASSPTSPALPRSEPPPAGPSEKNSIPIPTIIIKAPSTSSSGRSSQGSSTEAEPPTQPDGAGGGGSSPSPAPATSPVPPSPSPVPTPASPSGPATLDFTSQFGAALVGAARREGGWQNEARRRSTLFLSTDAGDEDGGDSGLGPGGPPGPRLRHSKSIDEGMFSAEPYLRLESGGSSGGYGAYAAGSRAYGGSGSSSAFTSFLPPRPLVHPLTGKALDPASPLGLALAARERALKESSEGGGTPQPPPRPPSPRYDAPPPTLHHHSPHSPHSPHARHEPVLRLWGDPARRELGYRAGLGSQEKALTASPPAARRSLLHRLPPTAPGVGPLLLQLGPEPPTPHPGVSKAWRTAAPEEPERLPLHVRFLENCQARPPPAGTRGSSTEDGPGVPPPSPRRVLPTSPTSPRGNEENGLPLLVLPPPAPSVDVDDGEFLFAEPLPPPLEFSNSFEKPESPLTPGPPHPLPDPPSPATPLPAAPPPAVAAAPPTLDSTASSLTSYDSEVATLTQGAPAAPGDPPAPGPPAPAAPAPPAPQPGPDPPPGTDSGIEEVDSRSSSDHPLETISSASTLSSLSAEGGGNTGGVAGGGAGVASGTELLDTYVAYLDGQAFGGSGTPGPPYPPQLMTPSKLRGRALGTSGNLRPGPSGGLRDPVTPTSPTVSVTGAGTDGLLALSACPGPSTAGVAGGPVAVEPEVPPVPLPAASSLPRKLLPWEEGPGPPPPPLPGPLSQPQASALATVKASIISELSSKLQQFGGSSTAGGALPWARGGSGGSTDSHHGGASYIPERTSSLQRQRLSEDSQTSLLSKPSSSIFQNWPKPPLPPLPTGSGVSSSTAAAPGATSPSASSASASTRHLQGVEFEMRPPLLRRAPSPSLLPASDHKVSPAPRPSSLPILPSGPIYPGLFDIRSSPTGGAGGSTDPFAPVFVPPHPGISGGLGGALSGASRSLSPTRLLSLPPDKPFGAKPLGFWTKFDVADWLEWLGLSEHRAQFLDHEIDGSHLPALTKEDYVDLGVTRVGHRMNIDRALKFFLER

Row | Variant | effect of a mutation on the interaction
5 | S920A | disrupting interaction
6 | T930A;F932A | disrupting interaction
7 | T930A | decreasing interaction
